Test results from paper PMC9271601 (Structure (London, England : 1993), 2022).

Experiments:
[1] = molecular target: H3 (A/Texas/50/2012) HA probe (Influenza A virus A/Texas/50/2012 (H3N2), UniProt R4L1D1, strain, biotin (biotin protein ligase, AviTag)); assay: flow cytometry on cells
[2] = molecular target: H3N2 A/Victoria/361/2011 hemagglutinin trimer, wild type (Influenza A virus A/Victoria/361/2011 …, UniProt A0A097PF39, strain); assay: BLI

B1: 1D12 B cell receptor on the donor's B cell (antibody, V domains shown)
VH: QLVQSGAEVKKPGASVKVSCKASGYTFTGYYLHWVRQAPGQGLEWMGRINPDTGGTNYAQKFQGRVSMTRDMSISTHYMELSRLTSDDTAVYYCATKRGAVTAMVYYYFYGMDVWGQGTTVTVSS
VL: DIVMTQSPLSLSVTPGEPASISCRSSHSLLHLNGYNYLDWYLQKPGQSPQLLIYLGSNRASGVPDRFSGSGSGTDFTLKISRVEAEDVGIYYCMQALRTPPGLTFGGGTKVDIK
**Q.** Does B1 bind [1]?
**A.** Result: binds

B2: 315–19-1D12 Fab (Fab, V domains shown)
VH: B1 VH
VL: B1 VL
**Q.** Does B2 bind [2]?
**A.** Result: binds
